The values that follow come from paper PMC1817651, “Ets-2 and C/EBP-beta are important mediators of ovine trophoblast Kunitz domain protein-1 gene expression in trophoblast”.

Sequences and labels used below:
B1: Ets-2 consensus (dsDNA)
DNA 1: CTAGGACCGGAAGTGGGAGT
DNA 2: ACTCCCACTTCCGGTCCTAG
B2: TKDP-1/2 (dsDNA)
DNA 1: CATGGGTAGGTAGGGAGGTTATGCAATAAACAGGACTGACTCAACTCCTCC
DNA 2: GGAGGAGTTGAGTCAGTCCTGTTTATTGCATAACCTCCCTACCTACCCATG
B3: TKDP-1/1 (dsDNA)
DNA 1: ACAGATGCAGGAGGCATGGG
DNA 2: CCCATGCCTCCTGCATCTGT
B4: TKDP-1/6 (dsDNA)
DNA 1: AGGAGCCCTCCTGCAAGGCC
DNA 2: GGCCTTGCAGGAGGGCTCCT
B5: TKDP-1/5 (dsDNA)
DNA 1: CAGTGTGTCCATCCTCAGCATCCTCAGGAGCCCTC
DNA 2: GAGGGCTCCTGAGGATGCTGAGGATGGACACACTG
B6: TKDP-1/4 (dsDNA)
DNA 1: CTGATCTCACGACTCAGCCAGAATATTAAAAGCTC
DNA 2: GAGCTTTTAATATTCTGGCTGAGTCGTGAGATCAG
B7: TKDP-1/3 (dsDNA)
DNA 1: TCCTCCCCTTGCCCACTCCCCTCCTTATCACCTGATCTCACGACTCA
DNA 2: TGAGTCGTGAGATCAGGTGATAAGGAGGGGAGTGGGCAAGGGGAGGA

The target in the first data set is T1, ovEts-2-GST fusion (Ovis aries, UniProt A0ACI6RFA5 364-444). Kind of data set: EMSA; anti-Ets-2 supershift; EMSA: 35 fmol probe, 2 ug Ets-2-GST or 10 ug JEG-3 extract, buffer per cited ref 23; pull-down: extract in 25 mM Tris-HCl pH 7.5, 150 mM NaCl, 0.5% Triton X-100, 0.5 mM DTT, 4 C overnight. As to conditions: protein: recombinant; tags: GST; label: 32P; blunt; only sense strand given. (In EMSA bound probe runs differently from free probe, usually more slowly.)
T1 sequence (A0ACI6RFA5 entry or part of it): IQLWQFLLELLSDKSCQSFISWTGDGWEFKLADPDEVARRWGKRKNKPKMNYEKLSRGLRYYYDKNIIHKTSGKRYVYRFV
Take B1: the binding result is listed as “binds”.

A further data set has as its target T1, ovEts-2-GST fusion. The experiment in a line: competition EMSA; 250-fold excess vs N1; EMSA: 35 fmol probe, 2 ug Ets-2-GST or 10 ug JEG-3 extract, buffer per cited ref 23; pull-down: extract in 25 mM Tris-HCl pH 7.5, 150 mM NaCl, 0.5% Triton X-100, 0.5 mM DTT, 4 C overnight. To be noted: protein: recombinant; tags: GST; blunt; only sense strand given.
Turning to B2, the binding result is given as “no binding”.

Turning to B3, the binding result is on record as “no binding”.

Regarding B4, the binding result is reported as “no binding”.

Consider B5, for which the binding result is given as “no binding”.

As to B6, the binding result is on record as “no binding”.

Turning to B7, the binding result was “no binding”.
